Substitutions are numbered along the chain they refer to. Names may count otherwise. Blank lines part the entries; values can stand above or below the binder they belong to.
Legend:
[1] = molecular target: T1, human PD-L1 on cells (CHO-PD-L1, CHO-PD-L1-OS8) (human, UniProt Q9NZQ7 19-290); experiment: FACS on CHO-PD-L1 cells, Alexa Fluor 647 anti-human IgG, MFI
T1 construct: whole, on cells; also called PD-L1 over-expressing cells; CD274
Procedure: Cell binding affinity of PD-L1/OX40 antibodies were measured against CHO (ATCC, #CCL-61) overexpressing human PD-L1 (CHO-PD-L1) and CHO overexpressing OX40 (CHO-OX40), respectively. Briefly, 5×10⁵ cells were seeded into each well of a 96-well plate (Corning, #3799). Cells were centrifuged at 400 g for 5 minutes and supernatants were discarded. For each well, 100 μl of 3× serial dilution of antibodies starting from 100 nM were then added and mixed with the cells. After 60 minutes of 4° C. incubation, plates were washed several times to remove excess antibodies. […] After another round of centrifugation and washing, cells were resuspended in FACS buffer for reading on a CytoFLEX Flow Cytometer (Beckman Coulter). Median Fluorescence Intensity (MFI) readouts were plotted against antibody concentration and analyzed with GraphPad Prism 8.0.

[2] = molecular target: T1, human PD-L1 on cells (CHO-PD-L1, …); experiment: cell-based receptor blocking assay, FACS: antibody against PD-1-mFc binding to CHO-PD-L1 cells, anti-mouse IgG detection
Procedure: Blocking of PD-1/PD-L1 binding was assessed in a cell based receptor blocking assay (RBA), 100 μl of 2×10⁵ cells/well of CHO-PD-L1 cells were added to a 96-well round-bottomed plate (Corning, Cat #3799), 50 μl serial diluted of antibody at 0.016 nM to 50 nM and 50 μl of 50 μg/ml PD-1-mFc (Novoprotein, #C754) were added to each well, mixed gently then incubated at 4° C. for 1 hour. The cells were washed and stained by Alexa Fluor® 647 anti-mouse IgG (1:500, Jackson ImmunoResearch, #115-606-008). Signals were read out by FACS and curves were fitted by GraphPad Prism 8.0.

[3] = molecular target: T2, recombinant human PD-L1/His fusion protein (Novoprotein, Cat. No. C315) (human, UniProt Q9NZQ7 19-239); experiment: BLI (Octet RED96), antibody on AHC sensor, PD-L1/His as analyte, test group 1
T2 construct: also called recombinant human PD-L1-his protein
From the text: Based on titer and purity, 10 of the 50 humanized antibodies were selected and further assayed in two groups for dissociation rate constant (koff) as shown in Table 7. Chimeric antibody EM0005-86c having VH/VL sequences identical to EM0005-mAb86 (as provided in Table 6) was used as a positive control in each group and served as a basis for normalization. Briefly, antibodies were characterized for affinities and binding kinetics by Octet® RED96 biolayer interferometry (Pall FortéBio LLC). Anti-hIgG Fc Capture (AHC) Biosensors (Pall) with antibody captured at a concentration of 100 nM for 120 seconds were dipped into running buffer (1× pH 7.2 PBS, 0.05% Tween 20, 0.1% BSA) for 60 seconds to check the baseline, then dipped into a single concentration of recombinant human PD-L1/His fusion protein (Novoprotein, Cat. No. C315) to measure binding for 200 seconds, followed by dipped into running buffer to measure dissociation for 600 seconds. The association and dissociation curves were fitted to a 1:1 Langmuir binding model using FortéBio Data Analysis software (Pall). The off-rate ratios shown in Table 7 were calculated by off-rate of a humanized antibody to that of EM0005-86c in the same test group. The off-rate ratio serves as a normalized index, so that the humanized antibodies can be compared to one another across test groups. The lower off-rate ratio indicates higher affinity of an antibody for human PD-L1. HuEM0005-86-21 was selected for further investigation based on the purity and off-rate data.

[4] = molecular target: Cyno OX40 (protein analyte in BLI, Table 10) (cyno); experiment: BLI (Octet Red96), FIT1014-20a on AHC sensor, cyno OX40 as analyte
[5] = molecular target: T2, recombinant human PD-L1/His fusion …; experiment: BLI (Octet Red96), FIT1014-20a on AHC sensor, human PD-L1-his as analyte
Procedure: (§1) The PD-L1 binding activities of FIT1014-20a were detected by biolayer interferometry using an Octet® Red sensing device (ForteBio, Red96). […] The association and dissociation curves were fitted to a 1:1 Langmuir binding model using FortéBio Data Analysis software (Pall) to produce kinetic rate constants Kon and Koff. The equilibrium dissociation constant KD (M) of the reaction between antibodies and related target proteins was then calculated by KD=koff/kon.

[6] = molecular target: recombinant cyno PD-L1-his protein (cyno, UniProt G7PSE7 19-239); experiment: BLI (Octet Red96), FIT1014-20a on AHC sensor, cyno PD-L1-his as analyte
Procedure: as §1

T2 sequence (Q9NZQ7 19-239 limits assumed): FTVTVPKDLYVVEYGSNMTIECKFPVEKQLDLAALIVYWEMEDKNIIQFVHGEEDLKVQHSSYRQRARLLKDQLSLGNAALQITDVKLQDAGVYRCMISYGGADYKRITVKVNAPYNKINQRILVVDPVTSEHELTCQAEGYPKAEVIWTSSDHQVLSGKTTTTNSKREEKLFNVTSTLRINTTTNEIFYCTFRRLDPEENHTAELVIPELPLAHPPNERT
Sequence of recombinant cyno PD-L1-his protein (G7PSE7 entry or part of it): as the sequence (Q9NZQ7 19-239 limits assumed) above, with A33T, A34S, S62N, R68Q, Q82R, F173L, T185A, T192I, H215L counted along it
T1 sequence (Q9NZQ7 19-290): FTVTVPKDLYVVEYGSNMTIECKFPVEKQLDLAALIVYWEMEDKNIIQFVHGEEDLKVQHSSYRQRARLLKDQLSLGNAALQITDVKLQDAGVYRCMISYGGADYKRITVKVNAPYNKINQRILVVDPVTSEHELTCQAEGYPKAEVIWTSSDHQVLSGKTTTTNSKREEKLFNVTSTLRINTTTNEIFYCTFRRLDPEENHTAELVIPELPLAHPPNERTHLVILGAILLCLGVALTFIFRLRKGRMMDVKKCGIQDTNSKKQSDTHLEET

EC50 (read off the curve) [1]: ~0.8 nM
IC50 (read off the curve) [2]: ~0.8 nM
B1: HuEM0005-86-64 (antibody, human IgG1, kappa, L234A L235A, V domains shown)
VH: EVQLVQSGSELKKPGASVKVSCKASGYTFTTYGINWVRQAPGQGLEWMGYIYIGNAYTEYNEKFKGRFVFSLDTSVSTAYLQISSLKAEDTAVYYCARDLMVIAPKTMDYWGQGTTVTVSS
VL: DIQMTQSPSSVSASVGDRVTITCKASQDVGTAVAWYQQKPGKAPKLLIYWASTRHTGVPSRFSGSGSGTDFTLTISSLQPEDFATYYCQQYSSYPYTFGGGTKVEIKR
notes: Humanized anti-PD-L1; same as HuEM0005-86-21 except Q1E and C82aS (Kabat) in VH; also called parental anti-PD-L1 monoclonal antibody; parental PD-L1 antibody

Off-Rate Ratio to EM0005-86c [3]: 88%
koff [3]: 0.000239 s⁻¹
B2: HuEM0005-86-21 (antibody, human IgG1, kappa, L234A L235A, V domains shown)
VH: B1 VH with E1Q, S84C
VL: B1 VL
notes: Humanized anti-PD-L1

The next lines start with the binder.

B3: FIT1014-20a (bispecific antibody, human IgG1, kappa, L234A L235A)
chain 1: DIQMTQSPSSVSASVGDRVTITCKASQDVGTAVAWYQQKPGKAPKLLIYWASTRHTGVPSRFSGSGSGTDFTLTISSLQPEDFATYYCQQYSSYPYTFGGGTKVEIKRTVAAPSVFIFPPSDEQLKSGTASVVCLLNNFYPREAKVQWKVDNALQSGNSQESVTEQDSKDSTYSLSSTLTLSKADYEKHKVYACEVTHQGLSSPVTKSFNRGECEVQLQQSGAEVKKPGSSVKVSCKASGHAFSSSWMNWVKQRPGKGLEWIGRIYPGDEITNYNAKFKDKATLTADKSTSTAYMELSSLRSEDTAVYYCARDLLMPYWGQGTLVTVSSASTKGPSVFPLAPSSKSTSGGTAALGCLVKDYFPEPVTVSWNSGALTSGVHTFPAVLQSSGLYSLSSVVTVPSSSLGTQTYICNVNHKPSNTKVDKKVEPKSCDKTHTCPPCPAPEAAGGPSVFLFPPKPKDTLYITREPEVTCVVVDVSHEDPEVKFNWYVDGVEVHNAKTKPREEQYNSTYRVVSVLTVLHQDWLNGKEYKCKVSNKALPAPIEKTISKAKGQPREPQVYTLPPSREEMTKNQVSLTCLVKGFYPSDIAVEWESNGQPENNYKTTPPVLDSDGSFFLYSKLTVDKSRWQQGNVFSCSVMHEALHNHYTQKSLSLSPGK
chain 2: EVQLVQSGSELKKPGASVKVSCKASGYTFTTYGINWVRQAPGQGLEWMGYIYIGNAYTEYNEKFKGRFVFSLDTSVSTAYLQISSLKAEDTAVYYCARDLMVIAPKTMDYWGQGTTVTVSSASTKGPSVFPLAPSSKSTSGGTAALGCLVKDYFPEPVTVSWNSGALTSGVHTFPAVLQSSGLYSLSSVVTVPSSSLGTQTYICNVNHKPSNTKVDKKVEPKSC
chain 3: DIVMTQTPLSLPVTPGEPASISCRSSKSLLYSNAITYLYWYLQKPGQSPQLLIYQMSNLAPGVPDRFSSSGSGTDFTLKISRVEAEDVGVYYCAQNLELPFTFGQGTKLEIKRTVAAPSVFIFPPSDEQLKSGTASVVCLLNNFYPREAKVQWKVDNALQSGNSQESVTEQDSKDSTYSLSSTLTLSKADYEKHKVYACEVTHQGLSSPVTKSFNRGEC
notes: Hexamer of three component polypeptide chains (two of each); outer Fab anti-PD-L1 (HuEM0005-86-64), inner Fab anti-OX40 (HuEM1007-44-16); also called FIT1014-20a (YTE); PD-L1/OX40 FIT-Ig
Kd [4]: 5.13 nM
koff [4]: 0.0004 s⁻¹
kon [4]: 78000 M⁻¹ s⁻¹
Kd [5]: 0.255 nM
koff [5]: 0.000158 s⁻¹
kon [5]: 620000 M⁻¹ s⁻¹
Kd [6]: 0.587 nM
koff [6]: 0.000276 s⁻¹
kon [6]: 470000 M⁻¹ s⁻¹
EC50 (read off the curve) [1]: ~1 nM
IC50 (read off the curve) [2]: ~0.8 nM

B4: EM0005-86c-1 (antibody, V domains shown)
VH: QVQLQQSGAELVRPGSSVKMSCKTSGYTFTTYGINWVKQRPGQGLEWIGYIYIGNAYTEYNEKFKGKATLTSDPSSRTAYMQLSSLTSEDSAIYFCARDLMVIAPKTMDYWGQGTSVTVSS
VL: DIQMNQSHKFMSTSVGDRVSITCKASQDVGTAVAWYQQKPGQSPKLLIYWASTRHTGVPDRFTGGGSGTDFTLTISNVQSEDLADYFCQQYSSYPYTFGGGTKLEMK
notes: Chimeric variant of EM0005-86c
Off-Rate Ratio to EM0005-86c [3]: 69%
koff [3]: 0.000188 s⁻¹

Reference: US20250282881A1 (SHANGHAI EPIMAB BIOTHERAPEUTICS, published 2025)
